This passage reports IC50 results from patent US20040077045A1.

The target in this assay is T1, HLA-DR13 (DRB1*1301), purified (human).
T1 chain 1: not shown
T1 chain 2: not shown
The experiment in a line: competition on purified HLA-DR (DRB1*1301) against biotinylated B1 21-36 (200 nM, pH 4.5); fluorescence assay.

Usually IC50 stands for the concentration needed to halve the response being measured. A lower IC50 goes with greater potency. TERVRLVTRHIYNREE (modifications not checked) [B1 21-36 (…), unlabeled reference peptide]: the IC50 came out at 390 nM.
